Assay results published in publication PMC10395824 (PLOS Pathogens, 2023).

Molecular target: SARS-CoV-2 S1 RBD2 (Wuhan RBD, S-protein amino acids 319-541) (SARS-CoV-2 Wuhan, UniProt P0DTC2)
Experiment: […] (150 mM NaCl, 20 mM Tris pH 7.5); […], MES pH 5.5, […]
Conditions: both partners purified

B1: Fab ICO-hu23 (Fab, V domains shown)
VH: EVQLVQSGAEVKKPGASVKVSCKASGYTFTGYYFHWVRQAPGQGLEWMGWINPISGGTKYAQKFQGWVTMTRATSISTVYMEVSRLRSDDTAVYYCARGHTYNWNYAYCDYWGQGTLVTVSS
VL: SYVLTQPASVSGSPGQSITISCTGTSSDVGVYNYVSWYQQHPGKAPKLMIYDVSNRPSGVSNRFSGSKSGNTASLTISGLQAEDEADYYCSSYTSSSTLVFGGGTKLTVL
Question: Does B1 bind?
Answer: Result: binds
